# Assay results from the RNAGym collection of RNA variant scans (doi:10.1073/pnas.2313332121).
# Fewer inactive variants are shown than the library holds.
# B1: TPR 5TU (parent)
# chain: GGAUCUUCUCGAUCUAACAAAAAAGACAAAUCUGCCACAAAGCUUGAGAGCAUCUUCGGAUGCAGAGGCGGCAGCCUUCGGUGGCGCGAUAGCGCCAACGUUCUCAACUAUGACACGCAAAACGCGUGCUCCGUUGAAUGGAGUUUAUCAUG
# Variants of: B1
# Assay: polymerase ribozyme fitness, log enrichment relative to wild type (log ratio); higher = more active; in vitro selection for triplet polymerase activity
# Procedure, shortened: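 Streptavidin-bead capture of gel-excised extended constructs, followed by RT-PCR, closed a single triplicate in vitro selection round. That round began by annealing PCR-built, transcribed mutant libraries of each subunit of a heterodimeric triplet polymerase ribozyme with a biotinylated primer, the partner subunit and triplets, then incubating them frozen at −7 °C. After Illumina sequencing of inputs and outputs, genotypes needed ≥10 input reads and ≥1 read per output. Fitness is the base-2 logarithm of genotype enrichment over wild-type enrichment, using inverse-variance-weighted replicate averages.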
row,Variant,polymerase ribozyme fitness (log ratio)
1,G62C G141C,-0.741
2,G65U U78A,-1.52
3,U61A A73G C93U C125A,-3.14
4,A66U G94A G100U U148G,≤ -4.2
5,C69G G84A U101C,-2.05
6,C69A C76G C79A U102A G141C,≤ -4.2
7,G67U G117A U151A,≤ -4.2
8,A60U C87U U135C,-3.65
9,G71U G84A A106U C118A G152A,≤ -4.2
10,A60G G88C A106U U134A G140C G143C,≤ -4.2
11,G70C G83A C87U G117C,-3.9
12,G67A C99U A107U G143C,≤ -4.2
13,A60C U61A,-2.27
14,A66C A91G A98U C131A U139A,≤ -4.2
15,G70A C85G,≤ -4.2
16,G70A C85U,-3.46
17,C63U G70C C87G A89G C96A G126C,≤ -4.2
18,C63U C69A G80A C85U G94C C99A,-3.32
19,C63U A89G C93A,≤ -4.2
20,A60G G68A U139A,≤ -4.2
21,G67C U101A G141U A150U G152U,≤ -4.2

row,Variant,polymerase ribozyme fitness (log ratio)
1,G71U A73U A97G U145G,≤ -4.2
2,U61A C85A C96A A121G,≤ -4.2
3,C69U G81U,-2.07
4,C69U C87U G92C A150G,-3.27
5,A60G C87A U109A C132G,≤ -4.2
6,A66C C76U A91U A97U C114U A142G,≤ -4.2
7,C69G A121U,-2.04
8,C63U C85U C95U C149U,-1.91
9,C69A G70C,-3.18
10,G68A C96U,-3.68
11,G62A C76A C79A C96A,≤ -4.2
12,C63U A150U,0.854
13,C69G C76A G152U,-4.17
14,G68A C93A C108A G143U,≤ -4.2
15,U61G C85A G133C,-3.52
16,G71U G80C C95U U127A,-3.97
17,A64G C99A,-3.82
18,G62C G81A A91U A113U C125U,≤ -4.2
19,A60G G94U,-0.467
20,A66U C93U,≤ -4.2
21,A60U C76A A120U,-1.94

row,Variant,polymerase ribozyme fitness (log ratio)
1,G67U G70C G86A C132G,≤ -4.2
2,C63G U90G G94A,-3.97
3,G68A C87G U104G,≤ -4.2
4,A60G G83A G133C,-1
5,U61G G62A C87U,-1.28
6,C63G C72U C93U,-0.337
7,G65C G81U G94C C105G A115G C129U A138C,≤ -4.2
8,A60U C93A,-3.06
9,C72A C93G C95G,≤ -4.2
10,G62A G86A A122C,-1.02
11,G71C U109A U111G,≤ -4.2
12,G70C A97G,-3.97
13,C63U C85U,-0.275
14,G71C U102G G133C G141C,≤ -4.2
15,A66G G84A G141C,≤ -4.2
16,C69G G83C,-4.05
17,G68C G81U C96U U109C,≤ -4.2
18,G65A G74C G140U A147G,≤ -4.2
19,G67A C76A,-4.16
20,G70A C75U C87G C99G C103A G140U U144G U146G,≤ -4.2
21,U61G C93U G94A U144G,≤ -4.2

row,Variant,polymerase ribozyme fitness (log ratio)
1,G68C G86U A89U C96A A110U C114U,≤ -4.2
2,G62U C63U G68A C95A C103A,≤ -4.2
3,C69U C85U U127G,-3.4
4,G62A C75U,-0.822
5,C69A U82G,-1.91
6,C63U C99U C116A,0.561
7,G62U C72U C93U A122G,-3.31
8,U61G G92C C95U C105U A106C U109C A138G,≤ -4.2
9,A60G C85U U144G,0.543
10,A66G C96U A138U U151A,≤ -4.2
11,A60C G94C A97G A98G U134C,-3.8
12,C63U A64G G83C,≤ -4.2
13,U61G G83A,-1.01
14,G65A C76A A122U,-4.06
15,A64C G83C G141A,≤ -4.2
16,G71C U77A U90C C103A U104G C131G,≤ -4.2
17,G70A C99U U134G G140C G143C,≤ -4.2
18,C63U G80A A97G A110G,-4.19
19,U61A A98U U134G G140U U145A,≤ -4.2
20,G68U U134G,≤ -4.2
21,U61A G117A,-0.98
